Results from the nanobody polyreactivity screen of Harvey et al. (2022).

Test: yeast display, Sf9 membrane polyspecificity reagent, FACS + sequencing; frameworks hold sequencing errors
In short: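 Genes from sorted yeast were amplified by colony PCR, read by MiSeq 2 × 250 sequencing and filtered on CDR length. These cells carried a synthetic nanobody library in Saccharomyces cerevisiae BJ5465 and were sorted by FACS into low and high (top ~1%) gates on anti-HA and streptavidin fluorescence. Polyreactivity is labelled according to the gate of origin.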

Sequence	polyreactivity (PSR sort gate)
QVQLVESGGGLVQAGGSLRLSCDASGSTFYWYAMGWYRQAPGKERELVAAITYSSGRTYYADSVKGRFTISRDNAKNTVYLQMNSLKPEDTAVYYCGWSALNGYDYWGQGTQVTVSS	high polyreactivity
QVQLVESGGGLVQAGGSLRLSCDASGSTIKYYAMGWYRQAPGTEMELVARITSDCGSTFYADSVKGRFTISRDNAKNTVYLLMNRLKPEDTAVYYCNTDYAFRHCWFYPMDYWGQGTQVTVSS	high polyreactivity
QVQLVESGGGLVQAGGSLRLSCDASGYIFSANAMGWYRQSPGKERELVAAITSSGGSTYYADSVKGRFTISRDNAKNTVYLQMNSLKPEDTAVYYCAAYSIYYRSGYPSRYRYYYWGQGTQVTVSS	high polyreactivity
QVQLVESGGGLVQAGGSLRLSCDPSGLTFNTYAMGWYRQAPGKERELVAAISSDGSTYYADSVKGRFTITRDNAKNTVYLQMNSLKPEDTAVYYCAATSFWWDLAGYYHWYDYWGQGTQVTVSS	high polyreactivity
QVQLVESGGGLVQAGGSLRLSCDPSGSIFDGYGMGWYRQAPGKERELVASITWNDGSTYYADSVKGRFTISRDNAKNTVYLQMNSLKPEDTAVYYCAADQWGYEYDYWGQGTQVTVSS	low polyreactivity
QVQLVESGGGLVQAGGSLRLSCEASGRTFDTYAMGCYRQAPGKERELVAAITTSGGTTYYADSVKGRFTISRDNAKNTVYLQMNSLKPEDTAVYYCAADPWIEYTYGSKAYYYWGQGTQVTVSS	low polyreactivity
QVQLVESGGGLVQAGGSLRLSCEASGSTFYRYAMGWYRQAPGKERELVDAISSSGGSTYYADSVKGRFTISRDNAKNTVYLQMNSLKPEDTAVYYCNASYRVRRFDYWGQGTQVTVSS	low polyreactivity
QVQLVESGGGLVQAGGSLRLSCEDSGFIFRVYAMGWYLQAPGKERELVAAINSGGSTNYADSVKGRFTISRDNAKNTVYLQMNSLKPEDTAVYYCAARVKTSYRYLRTYNYCGQGTQVTVSS	high polyreactivity
QVQLVESGGGLVQAGGSLRLSCGASGITFVRYAMGWYRQAPGKERELVAAITTSGGSTYYADSVKGRFTISRDNAKNTVYLQMNSLKPEDTAVYYCAARANAASGTFKYWGQGTQVTVSS	high polyreactivity
QVQLVESGGGLVQAGGSLRLSCGASGLTCREYAMGWYRQAPGKERELVAAITSTGGNTYYADSVKGRFPISRDNAKNTVYLQMNSLTPEDTAVYYCAARTTRRVTSGKFDYWGQGTQVTVSS	high polyreactivity
QVQLVESGGGLVQAGGSLRLSCGASGRIFWDNAMGWYRQAPGKERELVAAIDYRGGNTNYADSVKGRFTISRDNAKNTVYLQMNRLKTEDTAVYYCNAEWAVRYPGYDYWGQGTQVTVSS	low polyreactivity
QVQLVESGGGLVQAGGSLRLSCGASGRTVGGNAMGWERPAPGQERELVAAITNSASTYADSVKGRFTISRDNAQNTVYLLMNSLKPEDTAGSYCAARTLPRVYRNTFGYWGQGTQVTVSS	low polyreactivity
QVQLVESGGGLVQAGGSLRLSCGASGSIIGSYALGWYRQAPGPERELVAAISSSGGRTYYAVSVKGRFTISRDKAKNTVYLQMNRLKPAETAVYYCNTRPGTVFRAGGDDWGQGTQVTVSS	high polyreactivity
QVQLVESGGGLVQAGGSLRLSCGASGSSFADNAMGRYRPATGTERELVDTNTGSGGSTYYADSVKGRFTISRDNAKNTVYLLMNSLKPEDTAVYYCAAEVVAWSLYEDFKTYDYWGQGTQVTVSS	low polyreactivity
QVQLVESGGGLVQAGGSLRLSCGASGYISVGYAMGWYRPAPGKERELVAAITESGGSTYYADSVKGRFTISRDNAKNTVYLQMNSLKPEDSAVYYCAADVIYEDSMDYWGQGTQVTVSS	low polyreactivity
QVQLVESGGGLVQAGGSLRLSCPASGFIFRYYAMGWYRQAPGKERELVAAISWSGGSTYYADSVKGRFTISRDSAKNTVYLQIYSLKPEDTAVYYCGAEGFSYFIYWGQGSQVTVSS	high polyreactivity
QVQLVESGGGLVQAGGSLRLSCPASGFNFPYYAKGWYRQAPGKEREFVAAISSGGNTNYADSVKGRFTISRDNAKNTVYLQMNSLKPEDTAVFYCAAGFLRYLNWSVKYDYWGQGTQVTVSS	low polyreactivity
QVQLVESGGGLVQAGGSLRLSCPASGFTFVSYAMGWYRQAPGKERELVAAISRSGGTTYYADSVKGRFTISRDNAKNTVYLQMNSLKPEDTAVYYCAADFYVFYTRYYYWGQGTQVTVSS	low polyreactivity
QVQLVESGGGLVQAGGSLRLSCPASGIILTQNAMGWYRQAPGKERELVAAITESGARTYYADSVKGRFTISRDNAKNTVYLQMISLKPEDTAVYSCNAYRYYRGQVYPFYYWGHGTQVTVSS	low polyreactivity
QVQLVESGGGLVQAGGSLRLSCPASGLIFVDNAMGWYRQAPGKERELVAAIDSGGSTNYADSVKGRFTISRDNAKNTVYLQMNRLQPEDTAVYYCAADGIYAPWYYQESVEYYFWGQGTQVTVSS	low polyreactivity

Sequence	polyreactivity (PSR sort gate)
QVQLVESGGGLVQAGGSLRLSCPASGLTFGWYAMGWYRQAPGKERELVASITRRSGSTYYADSVKGRFTISRDNAKNTVYLQMNSLKPEDTAVYFWAARSRGTTRFDYWGQGTQVTVSS	high polyreactivity
QVQLVESGGGLVQAGGSLRLSCPASGRIFGTYPMGWSRQEPGKESELVARITRGSSTYYADSVKGRFTISRDNAKNTVYLQMNSLKPEDTAVYYCAAVGWGYSYRARYGYWGQGTQVTVSS	high polyreactivity
QVQLVESGGGLVQAGGSLRLSCPASGRIFPKNAMGWYRQAPGKERELVAAIDYSDGSTNYADSVKGRFTFSRDTAKNTVYLQMNSLKPDDTAVYYCAIVAVPSYDYWGQGTKVTVSS	low polyreactivity
QVQLVESGGGLVQAGGSLRLSCPASGRIFSFYALGGYRQAPGKERELVAAITYTDGSTYADSVKGRFTISRDNAKNTVYLQMNSLKPEDTAVYYCNAYRGWLLSREMDYWGQGTQVTVSS	low polyreactivity
QVQLVESGGGLVQAGGSLRLSCPASGRIFTYYTMGWYRQAPGKERELVASITGGGGRTYYADSVKGRFTISRDNAKNTVYLQMNSLKPEDTAVYYCNDRYPYPYWYTSYDYWGQGSQVTVSS	high polyreactivity
QVQLVESGGGLVQAGGSLRLSCPASGRILWFYAMGWYRQAPGKERELVAAISWNGGSTYYADSVKGRFTISRDNAKNTVYLQMNSLKPEDTAVYYCNKDPSVEWWFDYWGQGTQVTVSS	low polyreactivity
QVQLVESGGGLVQAGGSLRLSCPASGRTFSRNAMGRYRQAPGKERELVATISRRGGSTNYADSVKGRFTISRDNAKNTVYLQMNSLIPEDTAVYYCAAGYRVRDDKVYGIVGAMDYWGQGTQVTVSS	high polyreactivity
QVQLVESGGGLVQAGGSLRLSCPASGRTFWYYAMGWYRQAPGKVRELVAAITWSGSDTYYADSVKGRFTISRDNAKNTVYVQMNSLKPEDTAVYFCAAEYYYESSGYDYWGQGTQVTVSS	high polyreactivity
QVQLVESGGGLVQAGGSLRLSCPASGRTFYTNAMGWYRHAPGKERELVAAITRGGSTYYADSVKGRFTISRDNAKNTVYLQMYSLKPEDTAVYYCAAAYASSWRQRVTSEKGYYWGQGTQVTVSS	high polyreactivity
QVQLVESGGGLVQAGGSLRLSCPASGSIFYTNAMGWYRQAPVKERELVAAISRGGSTKYADSVKGRFTISRDNAKNSVYLQMNSLKPEDTAVYYCAARGTASRYLYIPYYYWGQGTQVTVSS	high polyreactivity
QVQLVESGGGLVQAGGSLRLSCPASGSIYASNTMGWYRQAPGKERELVSGITKIGSSTYYADSVKRRFTISRDNAKNTVYLQMNSLKPEDTAVYYCNAYGPTIYSSRYDYWGQGTQVTVSS	low polyreactivity
QVQLVESGGGLVQAGGSLRLSCPASGSTFGYYAMGWYRQAPGKERELVAAITYSVGGTYYADSVKGRFTISRDNAKNTVYLQMNSLKPEDTAVYSCNVDYYVPPAGVTRTGDDDYWGQGTQVTVSS	low polyreactivity
QVQLVESGGGLVQAGGSLRLSCPASGSTFKRNAMGWYRQAPGKERELVATITRRGGSTYADSVNGRFTISRDNAKNTVYLQMNSLKAEDTAVYYCARDGFSAGMDYWGQGTQVTVSS	low polyreactivity
QVQLVESGGGLVQAGGSLRLSCPASGSTLAWYTMGWYRQAPGKEREFVAVITGSGGSTFYADSVKGRFTISRDNAKNTVYLQMNSLKPEDTAVYYCAADYLYYVTQHRRFHLDYWGQGTQVTVSS	low polyreactivity
QVQLVESGGGLVQAGGSLRLSCPASGSTLVYNDMGWYRQAPGKEREFVAAIRSNDGSTYYADSVKGRFTISRDNAKNTVYLQMNSLKPEDTAVYYCNKDVWDGYDWPEFDYWGQGTQVTVSS	low polyreactivity
QVQLVESGGGLVQAGGSLRLSCPASGSTQHYYVKAWYRQAQGKERELVAAITWSGVSTYYADSVKGRFTISRDNAKNTVYLQMNSLKPEDTAVYYCAKRIFTSARLNYWGKGTQVTVSS	high polyreactivity
QVQLVESGGGLVQAGGSLRLSCSASGFIFGTNTMGWYRQAPGKEWELVAAITSVGSTNYADSVKGRFTISRDNAKNTVYLQMNSLKPEDTAVYYCPATLYYQYGGDYWGQGTQVTVSS	low polyreactivity
QVQLVESGGGLVQAGGSLRLSCSASGFIFLDYAMGLYRQAPGKERELVAAISSRGARTYYADSVKGRFTISRDNAKNTVYLQMNSLKPEDTAVYYCAARGPHDRYGYWGQGNQVTVSS	high polyreactivity
QVQLVESGGGLVQAGGSLRLSCSASGFTFSWYAMGWYRQAPGKDRELVAAINADGGTTYYADSVKGRFTISRDNAKNTVYLQMNSLKPEDTAVYYCADELSVDKYDYWGQGTQVTVSS	low polyreactivity
QVQLVESGGGLVQAGGSLRLSCSASGFTFYVNAMGWYRQAPGKERELVAAITDDGDSTYYADSVKGRFTISRDNAKNTVYLQMNSLKPEDTAVYYCKTVYGPDLDGTEYDYWGQGTQVTVSS	low polyreactivity
